Data from patent publication US20130109846A1 (published 2013).

Target: human CD28 (human, UniProt P10747 19-220)
Test: cell-based or functional assay

Luciferase assay (EC50)	MLR assay (EC50)	Binder
40 nM	268 nM	1h-79-15 (other) VL: DIQMTQSPSSLSASVGDRVTITCRASQPIGHSLGWYQQKPGKAPKLLIYWASTLQSGVPSRFSGSGSGTDFTITISSLQPEDFATYYCQQMLRTPFTFGQGTKVEIKR
331 nM	295 nM	1h-79-24 (other) VL: DIQMTQSPSSLSASVGDRVTITCRASQPIGHSLGWYQQKPGKAPKLLIYWASTLQSGVPSRFSGSGSGTDFTLTISSLQPEDFATYYCQQMLRTPFAFGQGTKVEIKR
240 nM	–	1h-79-8 (other) VL: DIQMTQSPSSLSASVGDRVTITCRASQPIGHSLGWYQQKPGKAPKLLIYWASTLQSGVPSRFSGSGSGTDFTLTISSLQPEDFATYYCQQMLRTPFMFGQGTKVEIKR
1300 nM	–	1h-39 (other) VL: DIQMTQSPSSLSASVGDRVTITCRASQYIGTALHWYQQKPGKAPRLLIYLSSNLQSGVPSRFSGSGSGTDFTLTISSLQPEDFATYYCQQSALNPYTFGQGTKVEIKR
6600 nM	–	1h-70 (other) VL: DIQMTQSPSSLSASVGDRVTITCRASQSIGTGLRWYQQKPGKAPMLLIYRASILQSGVPSRFSGGGSGTDFTLTISSLQPEDFATYYCQQTWYRPYTFGQGTKVEIKR
3400 nM	–	1h-72 (other) VL: DIQMTQSPSSLSASVGDRVTITCRASRSINHWLDWYQQKPGKAPTLLISGVSWLQSGVPSRFSGSGSGTDFTLTISSLQPEDFATYYCCQPGFRPCTFGQGTKVEIKR
560 nM	–	1h-79-808 (other) VL: DIQMTQSPSSLSASVGDRVTITCRASQPIGHALGWYQQKPGKAPRLLIYWASTLQSGVPSRFSGSGSGTDFTLTISSLQPEDFATYYCQQMLRTPFMFGQGTKVEIKR
166 nM	–	1h-79-2 (other) VL: DTQMTQSPSSLSASVGDRVTITCRASRPIGHSLGWYQQKPGKAPKLLIYWASMLQSGVPSRFSGSGSGTDFTLTISSLQPEDFATYYCQQMLRTPFTFGQGTKVEIKR
40 nM	26 nM	1h-79-806 (other) VL: DIQMTQSPSSLSASVGDRVTITCRASQPIGHSLGWYQQKPGKAPKLLIYWASMLQGGVPSRFSGSGSGTDFTLTISSLQPEDFATYYCQQMLRTPFMFGQGTKVEIKR
97 nM	37 nM	1h-79-1519 (other) VL: DIQMTQSPSSLSASVGDRVTITCRASQPIGHSLGWYQQKPGKAPKLLIYWASLLLDGVPSRFSGSGSGTDFTLTISSLQPEDFATYYCQQMLRTPFTFGQGTKVEIKR
592 nM	–	1h-79-809 (other) VL: DIQMTQSPSSLSASVGDRVTITCRASQAIGHSLGWYQQKPGKAPKLLVYWASTLQSGVPSRFSGSGSGTDFTLTISSLQPEDFATYYCQQMLRTPFMFGQGTKVEIKR

Second part, the binder before the results:

Binder	Luciferase assay (EC50)	MLR assay (EC50)
1h-38 (other) VL: DIQMTQSPSSLSASVGDRVTITCRASQPIGSVLAWYQQKPGKAPKLLIYFSSILQSGVPSRFSGSGSGTDFTLTISGLQPEDFATYYCQQALRSPFTFGQGTKVEIKR	650 nM	725 nM
1h-79-28 (other) VL: DIQMTQSPSSLSASVGDRVTITCRASQPIGHSLGWYQQKPGKAPKLLIYWASMLQSGVPSRFSGSGSGTDFTLTISSLQPEDFATYYCQQMLRTPFMFGQGTKVEIKR	40 nM	109 nM
1h-79-1505 (other) VL: DIQMTQSPSSLSASVGDRVTITCRASQPIGHSLGWYQQKPGKAPKLLIYWGSWLQSGVPSRFSGSGSGTDFTLTISSLQPEDFATYYCQQMLRTPFTFGQGTKVEIKR	103 nM	–
1h-79-17 (other) VL: DIQMTQSPSSLSASVGDRVTITCRASQPIGHSLAWYQQKPGKAPKLLIYWASTLQSGVPSRFSGSGSGTDFTLTISSLQPEDFATYYCQQMLRTPFAFGQGTKVEIKR	2500 nM	–
1h-79-22 (other) VL: DIQMTQSPSSLSASVGDRVTITCRASQPIGHSLAWYQQKPGKAPKLLIYWASMLQSGVPSRFSGSGSGTDFTLTISSLQPEDFATYYCQQMLRTPFSFGQGTKVEIKR	750 nM	–
1h-79-26 (other) VL: DIQMTQSPSSLSASVGDRVTITCRASQPIGHSLGWYQQKPGKAPKLLIYWASMLQSGVPSRFSGSGSGTDFTLTISSLQPEDFATYYCQQMLRTPFSFGQGTKVEIKR	62 nM	38 nM
1h-79-20 (other) VL: DIQMTQSPSSLSASVGDRVTVTCRASQPIGHSLAWYQQKPGKAPKLLIYWASMLQSGVPSRFSGSGSGTDFTLTISSLQPEDFATYYCQQMLRTPFTFGQGTKVEIKR	1800 nM	–
1h-79-21 (other) VL: DIQMTQSPSSLSASVGDRVTITCRASQPIGHSFAWYQQKPGKAPKLLIYWASTLQSGVPSRFSGSGSGTDFTLTISSLQPEDFATYYCQQMLRTPFTFGQGTKVEIKR	3000 nM	–
1h-79-29 (other) VL: DIQMTQSPSSLSASVGDRVTITCRASQPIGHSLGWYQQKPGKAPKLLIYWASMLQSGVPSRFSGSGSGTDFTLTISSLQPEDFATYYCQQMLRTPFAFGQGTKVEIKR	43 nM	150 nM
1h-80-1 (other) VL: DIQMTQSPSSLSASVGDRVTITCRASQRIGSNLAWYQQKPGRAPKLLIYWASLLQSGVPSRFSGSGSGTDFTLIISSLQPEDFATYYCQQTRSAPFAFGQGTKVEIKR	366 nM	438 nM
1h-74 (other) VL: DIQMTQSPSSLSASVGDRVTITCRASQYIGGALSWYQQKPGKAPKLLIYRASRLQSGVPSRFSGSGSGTDFTLTISSLQPEDFATYYCQQVALVPYTFGQGTKVEIKR	1300 nM	–
1h-75 (other) VL: DIQMTQSPSSLSASVGDRVTITCRASQYIGTRLSWYQQKPGKAPKLLIYNASFLQSGVPSRFSGSGSGTDFTLTISSLQPEDFATYYCQQLALSPLTFGQGTKVEIKR	5700 nM	–
1h-69 (other) VL: DIQMTQSPSSLSASVGDRVTITCRASQKIGTGLRWYQQKPGKAPKLLIYRASVLQSGVPSRFSGSGSGTDFTLTISSLQPEDFATYYCQQTAFPPYTFGQGTKVEIKR	> 7000 nM	–
1h-73 (other) VL: DIQMTQSPSSLSASVGDRVTITCRASQYIGTQLSWYQQKPGKAPKLLIYRGSLLQSGVPSRFSGSGSGTDFTLTISSLQPEDFATYYCQQTALSPYTFGQGTKVEIKR	4900 nM	–
1h-71 (other) VL: DIQMTQSPSSLSASVGDRVTITCRASRDIGHMLNWYQQKPGKAPKLLIWFGSVLQSGVPSRFSGSGSGTDFTLTISSLQPEDFATYYCVQGRLRPPTFGQGTKVEIKR	3500 nM	–
1h-79-1 (other) VL: DIQMTQSPSSLSASVGDRVTITCRASQPIGHSFGWYQQKPGKAPKLLIYWASTLQSGVPTRFSGSGSGTDFTLTISSLQPEDFATYYCQQMLRTPFTFGQGTKVEIKR	418000 nM	2100 nM
1h-79-31 (other) VL: DIQMTQSPSSLSASVGDRVTITCRASQPIGHSFGWYQQKPGKAPKLLIYWASMLQSGVPSRFSGSGSGTDFTLTISSLQPEDFATYYCQQMLRTPFMFGQGTKVEIKR	141 nM	103 nM
1h-79-1520 (other) VL: DIQMTQSPSSLSASVGDRVAITCRASQPIGHSLGWYEQKPGKAPKLLIYWSSVLISGVPSRFSGSGSGTDFTLTISSLQPEDFATYYCQQMLRTPFTFGQGTKVEIKR	113 nM	68 nM
1h-79-32 (other) VL: DIQMTQSPSSLSASVGDRVTITCRASQPIGHSFGWYQQKPGKAPKLLIYWASMLQSGVPSRFSGSGSGTDFTLTISSLQPEDFATYYCQQMLRTPFAFGQGTKVEIKR	68 nM	–
1h-79-1512 (other) VL: DIQMTQSPSSLSASVGDRVTITCRASQPIGHSLGWYQQKPGKAPKLLIYWASVLLHGVPSRFSGSGSGTDFTLTISSLQPEDFATYYCQQMLRTPFTFGQGTKVEIKR	19 nM	9 nM
1h-79-802 (other) VL: DIQMTQSPSSLSASVGDRVTITCRASTPIGHSLGWYQQKPGKAPKLLIYWASTLQSGVPSRFSGSGSGTDFTLTISSLQPEDFATYYCQQMLRTPFMFGQGTKVEIKR	421 nM	48 nM
1h-79-807 (other) VL: DIQMTQSPSSLSASVGDRVTITCRASQPIGHTLGWYQQKPGKAPKLLIYWASDLIRGVPSRFSGSGSGTDFTLTISSLQPEDFATYYCQQMLRTPFMFGQGTKVEIKR	31 nM	53 nM
1h-79-30 (other) VL: DIQMTQSPSSLSASVGDRVTITCRASQPIGHSFGWYQQKPGKAPKLLIYWASMLQSGVPSRFSGSGSGTDFTLTISSLQPEDFATYYCQQMLRTPFSFGQGTKVEIKR	224 nM	126 nM
